Laboratory results: CN106928350A (TIANJIN INST IND BIOTECHNOLOGY CAS; SUZHOU GENEWIZ …, dated 2017)

Biological target: T1, HA of H3 (A/Aichi/2/1968)/PR8 H3N1 (PR8-RS) (Influenza A virus A/Aichi/2/1968 (H3), UniProt P03437 17-566)
T1 construct: whole, on cells; also called A/Aichi/2/1968 H3N1-RG
Assay: immunofluorescence on virus-infected MDCK cells, antibody 40μg/mL

B1: AF4H1K1 (antibody, V domains shown)
VH: QVQLVESGGGVVQPGTSLRLSCEASGFTSSAYAMHWVRQAPGKGLEWVAVITFDGGYQYYADSVKGRFTISRDISRNTLHLHMNSLRAEDTAVYYCARDPLTKLLPFDWVSGGYFDYWGQGTLVTVSS
VL: not shown
notes: also called AF4H1K1 IgG; AF4H1K1IgG
B1: binds.
